Measurements from patent EP3386536A2 (dated 2018).

Molecular target: T1, human FcγRIIIA F158 (human, UniProt P08637 17-208)
T1 construct: also called CD16a F158 variant
Assay: BLI (Octet Red 96), FcγR on anti-his tag biosensor, conjugate in solution, avidity binding model

T1 sequence (P08637 17-208 limits assumed): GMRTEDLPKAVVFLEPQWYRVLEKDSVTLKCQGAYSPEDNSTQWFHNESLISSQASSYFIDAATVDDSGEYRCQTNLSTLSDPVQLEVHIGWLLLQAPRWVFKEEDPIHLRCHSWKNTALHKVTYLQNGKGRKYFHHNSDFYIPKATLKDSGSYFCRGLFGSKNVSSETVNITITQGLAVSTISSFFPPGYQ

fold change against the unconjugated SBT040-G2: ≤ 2 fold
B1: SBT040-G2 ATAC11 (antibody, human IgG2, kappa)
heavy: not shown
light: DIQMTQSPSSVSASVGDRVTITCRASQGIYSWLAWYQQKPGKAPNLLIYTASTLQSGVPSRFSGSGSGTDFTLTISSLQPEDFATYYCQQANIFPLTFGGGTKVEIKRTVAAPSVFIFPPSDEQLKSGTASVVCLLNNFYPREAKVQWKVDNALQSGNSQESVTEQDSKDSTYSLSSTLTLSKADYEKHKVYACEVTHQGLSSPVTKSFNRGEC
modifications: ATAC11 may also sit on light chain cysteines; sites not stated; ATAC11 (maleimide linker with gardiquimod) conjugated by cysteine-based bioconjugation; sites not stated; molar ratio about 4.0
notes: also called SBT-040-G2WT conjugated to ATAC11
